Numbering of substitutions follows the chain as printed. Numbers in names are those of the source.
B1: plasma-derived human complement factor H (natural protein)
chain: EDCNELPPRRNTEILTGSWSDQTYPEGTQAIYKCRPGYRSLGNVIMVCRKGEWVALNPLRKCQKRPCGHPGDTPFGTFTLTGGNVFEYGVKAVYTCNEGYQLLGEINYRECDTDGWTNDIPICEVVKCLPVTAPENGKIVSSAMEPDREYHFGQAVRFVCNSGYKIEGDEEMHCSDDGFWSKEKPKCVEISCKSPDVINGSPISQKIIYKENERFQYKCNMGYEYSERGDAVCTESGWRPLPSCEEKSCDNPYIPNGDYSPLRIKHRTGDEITYQCRNGFYPATRGNTAKCTSTGWIPAPRCTLKPCDYPDIKHGGLYHENMRRPYFPVAVGKYYSYYCDEHFETPSGSYWDHIHCTQDGWSPAVPCLRKCYFPYLENGYNQNYGRKFVQGKSIDVACHPGYALPKAQTTVTCMENGWSPTPRCIRVKTCSKSSIDIENGFISESQYTYALKEKAKYQCKLGYVTADGETSGSITCGKDGWSAQPTCIKSCDIPVFMNARTKNDFTWFKLNDTLDYECHDGYESNTGSTTGSIVCGYNGWSDLPICYERECELPKIDVHLVPDRKKDQYKVGEVLKFSCKPGFTIVGPNSVQCYHFGLSPDLPICKEQVQSCGPPPELLNGNVKEKTKEEYGHSEVVEYYCNPRFLMKGPNKIQCVDGEWTTLPVCIVEESTCGDIPELEHGWAQLSSPPYYYGDSVEFNCSESFTMIGHRSITCIHGVWTQLPQCVAIDKLKKCKSSNLIILEEHLKNKKEFDHNSNIRYRCRGKEGWIHTVCINGRWDPEVNCSMAQIQLCPPPPQIPNSHNMTTTLNYRDGEKVSVLCQENYLIQEGEEITCKDGRWQSIPLCVEKIPCSQPPQIEHGTINSSRSSQESYAHGTKLSYTCEGGFRISEENETTCYMGKWSSPPQCEGLPCKSPPEISHGVVAHMSDSYQYGEEVTYKCFEGFGIDGPAIAKCLGEKWSHPPSCIKTDCLSLPSFENAIPMGEKKDVYKAGEQVTYTCATYYKMDGASNVTCINSRWTGRPTCRDTSCVNPPTVQNAYIVSRQMSKYPSGERVRYQCRSPYEMFGDEEVMCLNGNWTEPPQCKDSTGKCGPPPPIDNGDITSFPLSVYAPASSVEYQCQNLYQLEGNKRITCRNGQWSEPPKCLHPCVISREIMENYNIALRWTAKQKLYSRTGESVEFVCKRGYRLSSRSHTLRTTCWDGKLEYPTCAKR
notes: complement factor H (FH), human, 20 CCP modules, plasma-derived; Glycosylated plasma protein; monomer of 155 kDa by SEC-MALS; also called FH; plasma-purified human FH; source: bought: Complement Technologies, plasma-derived, used without further purification
B2: recombinant human FH with a wild-type sequence (natural protein)
chain: B1 chain
notes: Secreted from P. pastoris, so the native signal peptide is probably absent (surmise); also called rFH; recombinant wild-type FH; source: Pichia pastoris (fermentor), purified after enzymatic deglycosylation
B3: recombinant FH(D1119G) (natural protein)
chain: B1 chain with D1101G
notes: complement factor H, human, full-length, with the aHUS-linked substitution D1119G (CCP 19); Expression-optimized synthetic DNA; Secreted from P. pastoris, so the native signal peptide is probably absent (surmise); also called rFH(D1119G); rFH; source: Pichia pastoris (vector pPICZαB), purified as described for rFH

Biological target: T1, human C3b (human, UniProt P01024 23-667; P01024 749-1663)
T1 construct: Amine coupled to the SPR chips (C1 or CM5); source: bought: Complement Technologies, plasma-derived, used without further purification
Assay: SPR; C3b (~250 RU) or C3d (~70 RU) amine coupled to adjacent flow cells of a Biacore C1 chip; FH preincubated with or without a 2-fold molar excess of PspCN injected (90 s, 30 μl/min, 400 s dissociation); 1:1 binding model
Conditions: both partners purified

T1 sequence (P01024 23-667, chain 1 of 2): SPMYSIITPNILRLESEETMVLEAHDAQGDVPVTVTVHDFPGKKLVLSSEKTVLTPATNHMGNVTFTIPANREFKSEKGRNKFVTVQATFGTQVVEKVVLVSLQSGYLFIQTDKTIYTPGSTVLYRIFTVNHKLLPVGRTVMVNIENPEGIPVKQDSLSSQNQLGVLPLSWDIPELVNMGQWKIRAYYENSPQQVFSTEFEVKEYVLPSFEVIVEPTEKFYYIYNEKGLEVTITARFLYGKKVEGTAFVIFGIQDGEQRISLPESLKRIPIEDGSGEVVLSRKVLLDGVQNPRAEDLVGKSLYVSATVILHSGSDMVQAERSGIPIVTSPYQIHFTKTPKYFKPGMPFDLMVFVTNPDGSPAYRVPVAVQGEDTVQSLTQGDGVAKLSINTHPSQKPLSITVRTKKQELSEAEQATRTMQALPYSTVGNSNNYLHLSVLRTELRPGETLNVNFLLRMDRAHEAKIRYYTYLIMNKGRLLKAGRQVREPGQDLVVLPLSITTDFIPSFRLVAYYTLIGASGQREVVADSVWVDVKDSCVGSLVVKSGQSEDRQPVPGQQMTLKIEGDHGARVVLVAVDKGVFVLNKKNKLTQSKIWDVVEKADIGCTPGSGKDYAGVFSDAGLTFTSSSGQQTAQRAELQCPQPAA
T1 sequence (P01024 749-1663, chain 2 of 2): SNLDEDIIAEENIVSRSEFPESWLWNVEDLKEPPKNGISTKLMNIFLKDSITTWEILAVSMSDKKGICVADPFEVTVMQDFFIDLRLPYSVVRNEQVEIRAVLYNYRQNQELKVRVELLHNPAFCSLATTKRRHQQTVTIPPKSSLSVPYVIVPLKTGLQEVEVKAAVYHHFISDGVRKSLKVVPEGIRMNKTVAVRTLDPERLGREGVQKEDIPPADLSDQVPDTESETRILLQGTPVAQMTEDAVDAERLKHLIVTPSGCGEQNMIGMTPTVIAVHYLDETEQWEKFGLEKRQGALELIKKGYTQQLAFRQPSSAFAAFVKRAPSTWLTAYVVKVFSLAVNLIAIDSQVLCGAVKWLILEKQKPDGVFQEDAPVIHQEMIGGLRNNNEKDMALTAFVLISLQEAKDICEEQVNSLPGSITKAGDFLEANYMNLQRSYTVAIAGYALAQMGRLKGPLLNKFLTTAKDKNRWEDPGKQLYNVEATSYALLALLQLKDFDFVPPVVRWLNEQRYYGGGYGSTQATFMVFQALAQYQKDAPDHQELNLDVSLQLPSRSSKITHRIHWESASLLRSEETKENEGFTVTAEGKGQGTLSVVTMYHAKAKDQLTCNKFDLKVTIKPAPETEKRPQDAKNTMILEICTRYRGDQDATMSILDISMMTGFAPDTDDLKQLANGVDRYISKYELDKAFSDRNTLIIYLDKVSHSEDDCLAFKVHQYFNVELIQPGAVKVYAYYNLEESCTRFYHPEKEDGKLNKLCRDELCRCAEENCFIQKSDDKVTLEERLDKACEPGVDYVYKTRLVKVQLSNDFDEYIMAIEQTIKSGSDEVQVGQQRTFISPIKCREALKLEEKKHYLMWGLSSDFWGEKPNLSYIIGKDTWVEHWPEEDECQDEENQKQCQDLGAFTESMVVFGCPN

Binder | Kd
B1 | 490 nM
B2 | 600 nM
B3 | 540 nM

From article PMC4635569, “Complement Evasion Mediated by Enhancement of Captured Factor H: Implications for Protection of Self-Surfaces from Complement” (The Journal of Immunology Author Choice, 2015)
